The values below come from the supplement of paper PMC5998384.

For data set [1], the system named is HeLa Kyoto. The data set can be described thus: solubility in G1/S (NP-40 vs SDS abundance) (log2 ratio); higher = more soluble. The settings on record: cell cycle stage: G1/S.
The test system of data set [2] is HeLa Kyoto. Description: solubility change mitosis vs G1/S (difference of NP-40 vs SDS log2 ratios) (log2 ratio difference); higher = more soluble in mitosis.
Data set [3] relates to HeLa Kyoto. The data set can be described thus: melting temperature (median over replicates), in situ; higher = more thermally stable.
Data set [4] relates to HeLa Kyoto. The data set can be described thus: thermal stability score vs G1/S (z-score of summed log2 fold changes over temperatures); higher = more thermally stable than in G1/S.
Setting [5] is: cell cycle stage: early G1 (4.5 h after nocodazole release).
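Wherever melting temperature (median over replicates), in situ is given: HeLa Kyoto cells synchronized by double thymidine or nocodazole block, proteins quantified by TMT10plex mass spectrometry, three independent biological replicates.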
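Wherever solubility change mitosis vs G1/S (difference of NP-40 vs SDS log2 ratios) is given: synchronized HeLa Kyoto cells (double thymidine block for G1/S, nocodazole release for mitosis), protein amounts in NP-40 versus SDS lysates quantified by mass spectrometry, three biological replicates.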
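Wherever solubility in G1/S (NP-40 vs SDS abundance) is given: HeLa Kyoto cells arrested at G1/S by double thymidine block, proteins quantified by TMT10plex mass spectrometry in mild NP-40 versus SDS extracts, three biological replicates.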
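Wherever thermal stability score vs G1/S (z-score of summed log2 fold changes over temperatures) is given: synchronized HeLa Kyoto cells, proteins quantified by TMT10plex mass spectrometry, three biological replicates, mitosis taken 0.5 h after nocodazole release, G1/S directly after double thymidine block.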

Take “MLLNGDCPESLKKEAAAAEPPRENGLDEAGPGDETTGQEVIVIQDTGFSVKILAPGIEPFSLQVSPQEMVQEIHQVLMDREDTCHRTCFSLHLDGNVLDHFSELRSVEGLQEGSVLRVVEEPYTVREARIHVRHVRDLLKSLDPSDAFNGVDCNSLSFLSVFTDGDLGDSGKRKKGLEMDPIDCTPPEYILPGSRERPLCPLQPQNRDWKPLQCLKVLTMSGWNPPPGNRKMHGDLMYLFVITAEDRQVSITASTRGFYLNQSTAYHFNPKPASPRFLSHSLVELLNQISPTFKKNFAVLQKKRVQRHPFERIATPFQVYSWTAPQAEHAMDCVRAEDAYTSRLGYEEHIPGQTRDWNEELQTTRELPRKNLPERLLRERAIFKVHSDFTAAATRGAMAVIDGNVMAINPSEETKMQMFIWNNIFFSLGFDVRDHYKDFGGDVAAYVAPTNDLNGVRTYNAVDVEGLYTLGTVVVDYRGYRVTAQSIIPGILERDQEQSVIYGSIDFGKTVVSHPRYLELLERTSRPLKILRHQVLNDRDEEVELCSSVECKGIIGNDGRHYILDLLRTFPPDLNFLPVPGEELPEECARAGFPRAHRHKLCCLRQELVDAFVEHRYLLFMKLAALQLMQQNASQLETPSSLENGGPSSLESKSEDPPGQEAGSEEEGSSASGLAKVKELAETIAADDGTDPRSREVIRNACKAVGSISSTAFDIRFNPDIFSPGVRFPESCQDEVRDQKQLLKDAAAFLLSCQIPGLVKDCMEHAVLPVDGATLAEVMRQRGINMRYLGKVLELVLRSPARHQLDHVFKIGIGELITRSAKHIFKTYLQGVELSGLSAAISHFLNCFLSSYPNPVAHLPADELVSKKRNKRRKNRPPGAADNTAWAVMTPQELWKNICQEAKNYFDFDLECETVDQAVETYGLQKITLLREISLKTGIQVLLKEYSFDSRHKPAFTEEDVLNIFPVVKHVNPKASDAFHFFQSGQAKVQQGFLKEGCELINEALNLFNNVYGAMHVETCACLRLLARLHYIMGDYAEALSNQQKAVLMSERVMGTEHPNTIQEYMHLALYCFASSQLSTALSLLYRARYLMLLVFGEDHPEMALLDNNIGLVLHGVMEYDLSLRFLENALAVSTKYHGPKALKVALSHHLVARVYESKAEFRSALQHEKEGYTIYKTQLGEDHEKTKESSEYLKCLTQQAVALQRTMNEIYRNGSSANIPPLKFTAPSMASVLEQLNVINGILFIPLSQKDLENLKAEVARRHQLQEASRNRDRAEEPMATEPAPAGAPGDLGSQPPAAKDPSPSVQG [CLUH]”: the “solubility in G1/S (log2)” value in data set [1] was -0.0434. For the same sequence, the “solubility change mitosis (log2)” value in data set [2] is -0.119. The melting temperature in data set [3] (cell cycle stage: G1/S) was 51.1 °C; in data set [3] (cell cycle stage: mitosis) it was 50.1 °C. Besides, the thermal stability score in data set [4] (setting [5]) was 0.526; in data set [4] (cell cycle stage: mitosis), -0.315.
“MLPNTGRLAGCTVFITGASRGIGKAIALKAAKDGANIVIAAKTAQPHPKLLGTIYTAAEEIEAVGGKALPCIVDVRDEQQISAAVEKAIKKFGGIDILVNNASAISLTNTLDTPTKRLDLMMNVNTRGTYLASKACIPYLKKSKVAHILNISPPLNLNPVWFKQHCAYTIAKYGMSMYVLGMAEEFKGEIAVNALWPKTAIHTAAMDMLGGPGIESQCRKVDIIADAAYSIFQKPKSFTGNFVIDENILKEEGIENFDVYAIKPGHPLQPDFFLDEYPEAVSKKVESTGAVPEFKEEKLQLQPKPRSGAVEETFRIVKDSLSDDVVKATQAIYLFELSGEDGGTWFLDLKSKGGNVGYGEPSDQADVVMSMTTDDFVKMFSGKLKPTMAFMSGKLKIKGNMALAIKLEKLMNQMNARL [HSDL2]”: the “solubility in G1/S (log2)” value in data set [1] came to 0.296. Also, in data set [2], the “solubility change mitosis (log2)” value is -0.109. The melting temperature in data set [3] (cell cycle stage: G1/S) came to 51.5 °C; in data set [3] (cell cycle stage: mitosis), 52.5 °C. Further, the thermal stability score in data set [4] (setting [5]) is -0.828; in data set [4] (cell cycle stage: mitosis) it was 0.589.
Take “MLPSLQESMDGDEKELESSEEGGSAEERRLEPPSSSHYCLYSYRGSRLAQQRGDSEDGSPSGTNAETPSGDDFSLSLADTNLPSEVEPELRSFIAKRLSRGAVFEGLGNVASVELKIPGYRVGCYYCLFQNEKLLPETVTIDSERNPSEYVVCFLGGSEKGLELFRLELDKYIQGLKNNMNCEARGLESHIKSYLSSWFEDVVCPIQRVVLLFQEKLTFLLHAALSYTPVEVKESDEKTKRDINRFLSVASLQGLIHEGTMTSLCMAMTEEQHKSVVIDCSSSQPQFCNAGSNRFCEDWMQAFLNGAKGGNPFLFRQVLENFKLKAIQDTNNLKRFIRQAEMNHYALFKCYMFLKNCGSGDILLKIVKVEHEEMPEAKNVIAVLEEFMKEALDQSF [C17ORF75]”: in data set [1], the “solubility in G1/S (log2)” value turned out to be 0.283. The “solubility change mitosis (log2)” value in data set [2] was -0.159. Also, the melting temperature in data set [3] (cell cycle stage: G1/S) was found to be 51.5 °C; in data set [3] (cell cycle stage: mitosis), 51.7 °C. The thermal stability score in data set [4] (setting [5]) was -0.255; in data set [4] (cell cycle stage: mitosis), -0.352.
For the sequence “MLPYTVNFKVSARTLTGALNAHNKAAVDWGWQGLIAYGCHSLVVVIDSITAQTLQVLEKHKADVVKVKWARENYHHNIGSPYCLRLASADVNGKIIVWDVAAGVAQCEIQEHAKPIQDVQWLWNQDASRDLLLAIHPPNYIVLWNADTGTKLWKKSYADNILSFSFDPFDPSHLTLLTSEGIVFISDFSPSKPPSGPGKKVYISSPHSSPAHNKLATATGAKKALNKVKILITQEKPSAEFITLNDCLQLAYLPSKRNHMLLLYPREILILDLEVNQTVGVIAIERTGVPFLQVIPCFQRDGLFCLHENGCITLRVRRSYNNIFTTSNEEPDPDPVQELTYDLRSQCDAIRVTKTVRPFSMVCCPVNENAAALVVSDGRVMIWELKSAVCNRNSRNSSSGVSPLYSPVSFCGIPVGVLQNKLPDLSLDNMIGQSAIAGEEHPRGSILREVHLKFLLTGLLSGLPAPQFAIRMCPPLTTKNIKMYQPLLAVGTSNGSVLVYHLTSGLLHKELSIHSCEVKGIEWTSLTSFLSFATSTPNNMGLVRNELQLVDLPTGRSIAFRGERGNDESAIEMIKVSHLKQYLAVVFRDKPLELWDVRTCTLLREMSKNFPTITALEWSPSHNLKSLRKKQLATREAMARQTVVSDTELSIVESSVISLLQEAESKSELSQNISAREHFVFTDIDGQVYHLTVEGNSVKDSARIPPDGSMGSITCIAWKGDTLVLGDMDGNLNFWDLKGRVSRGIPTHRSWVRKIRFAPGKGNQKLIAMYNDGAEVWDTKEVQMVSSLRSGRNVTFRILDVDWCTSDKVILASDDGCIRVLEMSMKSACFRMDEQELTEPVWCPYLLVPRASLALKAFLLHQPWNGQYSLDISHVDYPENEEIKNLLQEQLNSLSNDIKKLLLDPEFTLLQRCLLVSRLYGDESELHFWTVAAHYLHSLSQEKSASTTAPKEAAPRDKLSNPLDICYDVLCENAYFQKFQLERVNLQEVKRSTYDHTRKCTDQLLLLGQTDRAVQLLLETSADNQHYYCDSLKACLVTTVTSSGPSQSTIKLVATNMIANGKLAEGVQLLCLIDKAADACRYLQTYGEWNRAAWLAKVRLNPEECADVLRRWVDHLCSPQVNQKSKALLVLLSLGCFFSVAETLHSMRYFDRAALFVEACLKYGAFEVTEDTEKLITAIYADYARSLKNLGFKQGAVLFASKAGAAGKDLLNELESPKEEPIEE [WDR11]”, the “solubility in G1/S (log2)” value in data set [1] was -0.123. In addition, the “solubility change mitosis (log2)” value in data set [2] is -0.106. The melting temperature turned out to be 52.8 °C in data set [3] (cell cycle stage: G1/S) and 53.4 °C in data set [3] (cell cycle stage: mitosis). Moreover, the results for the thermal stability score in data set [4] (setting [5]) and in data set [4] (cell cycle stage: mitosis) were 1.39 and 0.377, respectively.
